Measured values from patent US9243280.
“Also recorded” adds a separate entry of the source.

Legend:
[1] = biological target: Ribosomal protein S1 bearing the C-terminal control peptide tag (UniProt P0AG67)
[2] = tested on: GFP fusion with aminoglycoside acetyltransferase (AAC)
[3] = biological target: Ribosomal protein S1 bearing the C-terminal degradation peptide tag (UniProt P0AG67)

ClpXP protease (complex of a hexamer of the ClpX unfoldase and the 14-mer ClpP protease)
colony formation on plates with arabinose (ClpP and ClpX induced) [1]: Colony formation by the rpsA-cont strain was unaffected by ClpP-X expression | level of S1-cont after induction of ClpP-X (anti-FLAG immunoblot of total protein) [1]: The induction of ClpP-X in the rpsA-cont strain did not alter the level of S1-cont throughout the time course | in vitro degradation at 30 degrees C with ClpX, ClpP, ATP and an ATP regeneration system (SDS-PAGE, Coomassie staining) [2]: By 80 minutes, all of the substrate (10-fold over ClpX6) was degraded | amount of S1-deg present 25, 35, and 45 minutes post induction, quantified against a dilution series on an immunoblot [3]: less than 0.5% of the level present prior to induction | level of S1-deg after induction of ClpP-X (anti-FLAG immunoblot of total protein) [3]: the level of S1-deg was reduced to approximately 50% by 15 minutes; also recorded: to trace levels at 25 minutes and beyond | number of colony-forming units on plates under inducing against non-inducing conditions [3]: expression of ClpP-X reduced the number of colony-forming units by more than a million-fold when the strain relied on S1-deg for growth
